# Article PMC4022879
# Residue numbers refer to the chain shown, from its start.
# B1: corn Hageman factor inhibitor (CHFI), control protein from Zea mays seeds (natural protein)
# chain: SAGTSCVPGWAIPHNPLPSCRWYVTSRTCGIGPRLPWPELKRRCCRELADIPAYCRCTALSILMDGAIPPGPDAQLEGRLEDLPGCPREVQRGFAATLVTEAECNLATIS
# B2: CHFI-12345, recombinant full-size CHFI without any truncations (natural protein)
# chain: B1 chain
# B3: CHFI-1245, full-size CHFI with Cys29 substituted by Asp (natural protein)
# chain: B1 chain with C29D
# B4: CHFI-2345 (domain or fragment)
# chain: IPHNPLPSCRWYVTSRTCGIGPRLPWPELKRRCCRELADIPAYDRCTALSILMDGAIPPGPDAQLEGRLEDLPGCPREVQRGFAATLVTEAECNLATISGVAECPWILGGGTMPSK
# Target: activated coagulation factor XII (FXIIa)
# Assay: chromogenic enzyme inhibition assay; 1 nM FXIIa, 500 μM S2302, 37 °C, 110 mM Tris-HCl pH 8.0, 250 mM NaCl, 1% BSA; residual activity in triplicate at at least six inhibitor concentrations; Ki from a linear fit of 1/v against inhibitor concentration
row,Ki [nM],Binder
1,1,B1
2,1.1,B2
3,50,B3
4,1,B4

# Target: bovine pancreatic trypsin (bovine)
# Assay: chromogenic enzyme inhibition assay; 1 nM trypsin, 500 μM S2765, 37 °C, 110 mM Tris-HCl pH 8.0, 250 mM NaCl, 1% BSA; residual activity in triplicate at at least six inhibitor concentrations; Ki from a linear fit of 1/v against inhibitor concentration
# Chain of bovine pancreatic trypsin (bovine) (P00760 24-246): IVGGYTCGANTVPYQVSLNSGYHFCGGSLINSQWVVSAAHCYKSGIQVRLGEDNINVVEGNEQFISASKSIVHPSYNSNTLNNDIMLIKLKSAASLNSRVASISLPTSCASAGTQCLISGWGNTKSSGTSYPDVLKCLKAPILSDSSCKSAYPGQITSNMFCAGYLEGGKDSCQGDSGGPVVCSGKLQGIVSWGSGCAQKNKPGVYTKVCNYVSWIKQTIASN
row,Ki [nM],Binder
1,2.1,B1
2,1.3,B2
3,250,B3
4,2.9,B4
